Our source for the stoichiometry N values is publication doi:10.1101/2024.05.31.596867.

The assay concerns the target de-glycosylated KEN SVMP PIII (PNGase F treated under native conditions) (Bitis arietans (puff adder, Kenya)). Put plainly: gelatin zymogram.

In turn, “de-glycosylated KEN SVMP PIII (PNGase F treated under native conditions) (enzyme)” yielded a stoichiometry N of 2.
